Experimental data from patent publication US20220033485A1 (TEIJIN PHARMA, published 2022).
Changes are numbered by the printed parent chain. Names may count otherwise.

B1: anti-IGF-I receptor humanized antibody R11-16B (antibody, human IgG4, V domains shown)
VH: QVQLVQPGAELVKPGASVKVSCKAPGYTFTSYWMHWVRQAPGQGLEWIGETNPSNSVTNYNEKFKSKATLTVDTSTSTVYMELSSLRSEDTAVYYCTIGRGRGFAYWGQGTLVTVSS
VL: DIQMTQSPSSLSASVGDRVTITCRASQNINFWLSWYQQKPGKAPKLLIYKASNLHTGVPSRFSGSGSGTDFTFTISSLQPEDIATYYCLQGQSYPYTFGQGTKLEIK
notes: Heavy chain constant region: human IgG4 S228P variant; Expressed in Expi293, protein A purified; also called R11-16B antibody; R11-16VH + R11-16VL-C36Y
B2: anti-IGF-I receptor humanized antibody R11-16E (antibody, human IgG4, V domains shown)
VH: B1 VH
VL: B1 VL with Y36F
notes: also called R11-16E antibody; R11-16VH + R11-16VL-C36F
B3: anti-IGF-I receptor humanized antibody R11-16F (antibody, human IgG4, V domains shown)
VH: B1 VH
VL: B1 VL with Y36C
notes: also called R11-16F antibody; R11-16VH + R11-16VL-C36
B4: anti-IGF-I receptor humanized antibody R11-16D (antibody, human IgG4, V domains shown)
VH: B1 VH
VL: B1 VL with Y36S
notes: also called R11-16D antibody; R11-16VH + R11-16VL-C36S
B5: anti-IGF-I receptor humanized antibody R11-16C (antibody, human IgG4, V domains shown)
VH: B1 VH
VL: B1 VL with Y36A
notes: also called R11-16C antibody; R11-16VH + R11-16VL-C36A

Molecular target: T1, human IGF-I receptor (human, UniProt P08069 31-1367)
T1 sequence (P08069 31-1367 limits assumed): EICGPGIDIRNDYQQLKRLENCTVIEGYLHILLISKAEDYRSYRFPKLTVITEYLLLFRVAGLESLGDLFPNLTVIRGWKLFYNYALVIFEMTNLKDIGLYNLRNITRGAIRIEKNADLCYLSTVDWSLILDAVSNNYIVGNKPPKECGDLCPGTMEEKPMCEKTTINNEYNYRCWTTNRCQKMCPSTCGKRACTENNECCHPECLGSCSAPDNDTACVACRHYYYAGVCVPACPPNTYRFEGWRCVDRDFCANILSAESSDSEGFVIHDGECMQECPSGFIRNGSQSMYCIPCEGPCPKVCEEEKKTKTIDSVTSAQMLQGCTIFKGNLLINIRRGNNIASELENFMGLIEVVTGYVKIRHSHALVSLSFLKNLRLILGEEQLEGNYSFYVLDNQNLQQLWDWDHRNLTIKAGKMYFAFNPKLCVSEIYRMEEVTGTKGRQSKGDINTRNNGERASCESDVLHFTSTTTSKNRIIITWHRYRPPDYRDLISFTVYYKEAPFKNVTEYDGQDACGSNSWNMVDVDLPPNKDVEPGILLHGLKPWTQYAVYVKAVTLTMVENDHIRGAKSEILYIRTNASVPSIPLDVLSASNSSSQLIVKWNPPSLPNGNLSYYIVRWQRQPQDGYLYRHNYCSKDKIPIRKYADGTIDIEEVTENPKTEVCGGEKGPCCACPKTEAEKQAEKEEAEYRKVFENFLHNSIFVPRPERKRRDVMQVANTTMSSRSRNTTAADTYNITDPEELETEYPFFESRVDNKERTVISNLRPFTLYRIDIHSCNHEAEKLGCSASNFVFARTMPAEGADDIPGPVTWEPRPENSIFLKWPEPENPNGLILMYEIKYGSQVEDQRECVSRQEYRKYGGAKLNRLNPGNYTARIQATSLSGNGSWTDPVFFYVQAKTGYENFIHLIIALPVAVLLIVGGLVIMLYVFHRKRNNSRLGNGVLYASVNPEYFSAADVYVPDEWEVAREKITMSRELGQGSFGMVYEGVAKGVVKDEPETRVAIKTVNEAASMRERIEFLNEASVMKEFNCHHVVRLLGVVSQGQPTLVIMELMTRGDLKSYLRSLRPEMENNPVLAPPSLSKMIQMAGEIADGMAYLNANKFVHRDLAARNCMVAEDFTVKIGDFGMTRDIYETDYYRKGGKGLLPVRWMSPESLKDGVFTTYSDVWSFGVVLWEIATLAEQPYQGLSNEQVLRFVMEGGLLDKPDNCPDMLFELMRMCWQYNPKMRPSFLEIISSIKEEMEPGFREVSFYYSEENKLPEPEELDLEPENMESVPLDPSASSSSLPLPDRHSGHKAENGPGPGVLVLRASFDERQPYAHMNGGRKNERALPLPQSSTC
Assay: cell-based or functional assay

EC50 of proliferation activity on human myoblast cells [pM] | Binder
2 | B1
2 | B2
2 | B3
2 | B4
2 | B5

Molecular target: T1, human IGF-I receptor
Assay: cell-based or functional assay
Remark: another data set of the same source

Proliferation activity on human myoblast cells (%), 0.005 nM, Experiment 1 [%] | Proliferation activity on human myoblast cells (%), 0.005 nM, Experiment 2 [%] | Proliferation activity on human myoblast cells (%), 0.5 nM, Experiment 1 [%] | Proliferation activity on human myoblast cells (%), 0.5 nM, Experiment 2 [%] | Binder
147 | 148 | 164 | 164 | B1
150 | 143 | 166 | 164 | B2
146 | 148 | 161 | 156 | B3
144 | 149 | 160 | 169 | B4
150 | 143 | 178 | 172 | B5

Molecular target: T2, rat IGF-I receptor (rat, UniProt P24062 31-1370)
T2 construct: Whole entry as named; expressed on HEK293T cells; also called IGF-I receptor of rat; NP_434694
T2 sequence (P24062 31-1370 limits assumed): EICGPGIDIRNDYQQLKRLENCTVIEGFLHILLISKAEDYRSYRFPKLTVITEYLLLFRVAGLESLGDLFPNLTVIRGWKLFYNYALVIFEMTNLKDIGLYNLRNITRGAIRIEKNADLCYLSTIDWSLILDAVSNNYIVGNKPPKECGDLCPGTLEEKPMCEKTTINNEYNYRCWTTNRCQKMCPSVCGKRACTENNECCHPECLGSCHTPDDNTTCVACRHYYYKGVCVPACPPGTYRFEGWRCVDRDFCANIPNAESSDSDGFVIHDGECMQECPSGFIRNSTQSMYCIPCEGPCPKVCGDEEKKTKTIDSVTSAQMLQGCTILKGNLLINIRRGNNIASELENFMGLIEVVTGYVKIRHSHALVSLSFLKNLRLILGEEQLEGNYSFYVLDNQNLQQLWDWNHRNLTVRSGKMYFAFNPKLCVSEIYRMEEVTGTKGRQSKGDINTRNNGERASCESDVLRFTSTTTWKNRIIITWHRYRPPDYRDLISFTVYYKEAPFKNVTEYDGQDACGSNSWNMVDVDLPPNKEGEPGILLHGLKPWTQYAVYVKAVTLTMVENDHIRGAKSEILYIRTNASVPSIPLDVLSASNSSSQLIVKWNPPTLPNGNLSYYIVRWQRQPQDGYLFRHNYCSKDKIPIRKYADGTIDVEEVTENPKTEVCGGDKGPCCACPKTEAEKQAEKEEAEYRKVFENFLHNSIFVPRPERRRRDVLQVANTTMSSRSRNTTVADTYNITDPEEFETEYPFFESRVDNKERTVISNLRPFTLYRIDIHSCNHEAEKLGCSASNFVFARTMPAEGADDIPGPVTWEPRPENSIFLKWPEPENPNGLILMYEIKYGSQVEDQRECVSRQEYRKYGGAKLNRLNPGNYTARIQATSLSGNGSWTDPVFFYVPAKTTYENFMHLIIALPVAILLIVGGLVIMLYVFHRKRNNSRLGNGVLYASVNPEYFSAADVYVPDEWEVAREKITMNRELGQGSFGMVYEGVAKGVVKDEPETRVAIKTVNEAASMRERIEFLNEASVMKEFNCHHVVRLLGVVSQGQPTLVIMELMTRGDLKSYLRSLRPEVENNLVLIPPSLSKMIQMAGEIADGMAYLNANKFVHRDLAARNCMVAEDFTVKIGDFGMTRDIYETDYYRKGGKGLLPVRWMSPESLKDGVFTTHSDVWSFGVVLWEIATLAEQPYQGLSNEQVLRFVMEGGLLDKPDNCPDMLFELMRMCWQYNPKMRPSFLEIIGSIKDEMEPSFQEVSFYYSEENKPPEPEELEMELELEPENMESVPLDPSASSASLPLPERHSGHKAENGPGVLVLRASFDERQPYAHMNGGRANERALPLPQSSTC
Assay: cell-based ELISA on HEK293T cells expressing the receptor
Experimental: (§1) The HEK293T cells cultured for at least one night after the lipofection were added to a 96-well plate (coated with poly-D-lysine) in 4×10⁴ cells/well, and the plate further cultured for at least one night were used in the ELISA.
(§2) In the ELISA, 2 nM humanized antibody solutions in 1% BSA/1% FBS/PBS (100 μL) were added to respective wells and reacted for about one hour at 37° C. The wells were washed three times with a cleaning solution. An HRP conjugate solutions (100 μL) of an anti-human IgG antibody prepared at various concentrations with 1% BSA/1% FBS/PBS was added to the respective wells and reacted for about one hour at 37° C. Each well was washed three times with a cleaning solution. A TMB substrate (100 μL) was added to each well to initiate the reaction. Approximately 30 minutes later, 1M sulfuric acid (100 μL) was added to each well to measure the absorbances at 450 nm and 650 nm and calculate the difference of the values between 450 nm and 650 nm.

binding result | Binder
no binding (tested: 2 nM) | B1
no binding (tested: 2 nM) | B2
no binding (tested: 2 nM) | B3
no binding (tested: 2 nM) | B4
no binding (tested: 2 nM) | B5

Molecular target: T3, Substitute 2 of CR domain (human IGF-I receptor G315S, S316T, C-terminal FLAG tag) (human, UniProt P08069 31-1367)
T3 construct: Expressed on 293T cells, formalin fixed; also called substitute 2 receptor
Assay: cell-based ELISA on fixed 293T cells expressing the substitute receptor
Experimental: (§3) 293T cells were seeded in 10-cm dishes coated with poly-D-lysine in 6×10⁶ cells. On the next day, each plasmid DNA was introduced into the cells by lipofection. Two days later, the 293T cells were released with 0.05% trypsin/EDTA and suspended in the culture medium. The 293T cells were added to a 96-well plate (coated with poly-D-lysine) in 2×10⁴ cells/well and incubated overnight at 37° C. under 5% CO₂. The medium was removed from the 96-well plate. The plate was fixed with 10% buffered formalin (Mildform® 10NM, Wako), replaced by a blocking buffer (3% BSA/PBS/0.02% sodium azide), and used for the ELISA.
(§4) Each well was washed two times with a cleaning solution. A 2500-fold diluted solution of an anti-human IgG antibody ALP conjugate solution (2087-04, Southern Biotech) in the blocking buffer (50 μL) was added to each well and reacted for about one hour at room temperature. Each well was washed three times with a cleaning solution. A pNPP substrate (100 μL) was added to each well to initiate the reaction. The absorbances at 405 nm and 550 nm were measured after about one hour.

binding result | Binder
no binding (tested: 5 nM) | B1

Molecular target: T1, human IGF-I receptor
Assay: cell-based ELISA, 2 nM antibody on HEK293T cells expressing the receptor, A450-A650
Experimental: as §1, §2

Avidity (relative to control HEK293T cells = 1) | Binder
3.4 fold of control cells | B1
3.7 fold of control cells | B2
3.4 fold of control cells | B3
3.4 fold of control cells | B4
3.4 fold of control cells | B5

Molecular target: T4, cynomolgus monkey IGF-I receptor (cynomolgus monkey, UniProt P08069 31-1367 (human entry))
T4 construct: Whole entry as named; expressed on HEK293T cells; also called IGF-I receptor of cynomolgus monkey; XP_005560575
T4 sequence (P08069 other isoform, or with tags, fused parts or gaps limits assumed): as the sequence (P08069 31-1367 limits assumed) above, with T188A, S471W, A729V, P738L, E1238D counted along it
Assay: as above
Experimental: as §1, §2

Avidity (relative to control HEK293T cells = 1) | Binder
3.3 fold of control cells | B1
3.7 fold of control cells | B2
3.3 fold of control cells | B3
3.4 fold of control cells | B4
3.3 fold of control cells | B5

Molecular target: T5, guinea pig IGF-I receptor (guinea pig, UniProt P08069 31-1367 (human entry))
T5 construct: Whole entry as named; expressed on HEK293T cells; also called IGF-I receptor of guinea pig; XP_003475316
T5 sequence (P08069 other isoform, or with tags, fused parts or gaps limits assumed): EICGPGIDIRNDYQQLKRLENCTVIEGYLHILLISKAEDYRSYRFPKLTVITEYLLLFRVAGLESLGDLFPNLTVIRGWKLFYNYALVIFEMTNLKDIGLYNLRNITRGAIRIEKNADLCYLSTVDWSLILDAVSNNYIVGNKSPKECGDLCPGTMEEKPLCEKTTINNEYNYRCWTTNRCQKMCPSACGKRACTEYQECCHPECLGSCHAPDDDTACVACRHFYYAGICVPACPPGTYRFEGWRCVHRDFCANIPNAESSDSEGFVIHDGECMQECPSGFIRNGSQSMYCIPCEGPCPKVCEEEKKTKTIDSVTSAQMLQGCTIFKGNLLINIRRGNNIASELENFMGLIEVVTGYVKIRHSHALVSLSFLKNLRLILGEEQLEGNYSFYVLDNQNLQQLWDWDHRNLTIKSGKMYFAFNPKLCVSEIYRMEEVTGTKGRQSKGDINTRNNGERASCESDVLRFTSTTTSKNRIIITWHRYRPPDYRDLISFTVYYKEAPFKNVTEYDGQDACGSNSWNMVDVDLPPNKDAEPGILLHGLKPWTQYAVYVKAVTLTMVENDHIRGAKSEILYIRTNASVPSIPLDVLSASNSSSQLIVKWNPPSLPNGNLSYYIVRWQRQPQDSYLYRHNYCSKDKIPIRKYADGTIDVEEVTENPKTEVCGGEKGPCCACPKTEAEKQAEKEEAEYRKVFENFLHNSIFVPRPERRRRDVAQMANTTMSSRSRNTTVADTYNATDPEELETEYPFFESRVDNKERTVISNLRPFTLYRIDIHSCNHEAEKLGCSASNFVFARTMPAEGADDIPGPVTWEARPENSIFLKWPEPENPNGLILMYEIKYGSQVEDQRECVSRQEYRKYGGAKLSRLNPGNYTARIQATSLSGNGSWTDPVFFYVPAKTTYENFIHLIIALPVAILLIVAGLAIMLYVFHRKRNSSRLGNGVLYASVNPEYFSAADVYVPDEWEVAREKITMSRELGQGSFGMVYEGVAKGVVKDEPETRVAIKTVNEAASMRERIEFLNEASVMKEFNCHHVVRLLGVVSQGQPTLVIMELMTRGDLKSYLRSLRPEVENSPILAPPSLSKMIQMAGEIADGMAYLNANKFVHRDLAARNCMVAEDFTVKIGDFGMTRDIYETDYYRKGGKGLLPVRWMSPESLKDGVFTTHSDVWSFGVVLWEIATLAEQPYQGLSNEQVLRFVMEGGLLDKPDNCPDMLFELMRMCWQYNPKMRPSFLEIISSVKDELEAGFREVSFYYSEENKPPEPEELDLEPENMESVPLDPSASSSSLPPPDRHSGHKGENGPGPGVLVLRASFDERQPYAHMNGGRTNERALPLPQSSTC
Assay: as above
Experimental: as §1, §2

Avidity (relative to control HEK293T cells = 1) | Binder
3.3 fold of control cells | B1
3.4 fold of control cells | B2
3.3 fold of control cells | B3
3.3 fold of control cells | B4
3.3 fold of control cells | B5

Molecular target: T2, rat IGF-I receptor
Assay: as above
Experimental: as §1, §2

Avidity (relative to control HEK293T cells = 1) | Binder
0.8 fold of control cells | B1
0.8 fold of control cells | B2
0.9 fold of control cells | B3
0.9 fold of control cells | B4
0.9 fold of control cells | B5

Molecular target: T6, wild-type human IGF-I receptor with C-terminal FLAG tag (human, UniProt P08069 31-1367)
T6 construct: Expressed on 293T cells, formalin fixed; also called positive control
Assay: cell-based ELISA, 5 nM R11-16B on fixed 293T cells expressing the FLAG-tagged receptor; Mock cells gave 0.328
Experimental: as §3, §4

Avidity (absorbance, R11-16B added minus not added) [absorbance] | Binder
0.835 | B1

Molecular target: T7, Substitute 1 of CR domain (human IGF-I receptor D245N, A247T, E294D, C-terminal FLAG tag) (human, UniProt P08069 31-1367)
T7 construct: Expressed on 293T cells, formalin fixed; also called substitute 1 receptor
Assay: as above
Experimental: as §3, §4

Avidity (absorbance, R11-16B added minus not added) [absorbance] | Binder
0.885 | B1

Molecular target: T3, Substitute 2 of CR domain (human IGF-I …)
Assay: as above
Experimental: as §3, §4

Avidity (absorbance, R11-16B added minus not added) [absorbance] | Binder
0.308 | B1
